Results published in US20090318342A1, “Compounds” (IMPERIAL INNOVATIONS LIMITED, priority 2005, published 2009).

Assays:
[1] = target: ADAMTS-5 (Homo sapiens (Human)) (UniProt Q9UNA0); assay: GST-IGD-FLAG substrate assay, Ki(app)
[2] = target: T1, ADAMTS-4 (as used in Example 4; form not stated) (Homo sapiens (Human)) (UniProt O75173); assay: GST-IGD-FLAG substrate assay, Ki(app)
T1 sequence: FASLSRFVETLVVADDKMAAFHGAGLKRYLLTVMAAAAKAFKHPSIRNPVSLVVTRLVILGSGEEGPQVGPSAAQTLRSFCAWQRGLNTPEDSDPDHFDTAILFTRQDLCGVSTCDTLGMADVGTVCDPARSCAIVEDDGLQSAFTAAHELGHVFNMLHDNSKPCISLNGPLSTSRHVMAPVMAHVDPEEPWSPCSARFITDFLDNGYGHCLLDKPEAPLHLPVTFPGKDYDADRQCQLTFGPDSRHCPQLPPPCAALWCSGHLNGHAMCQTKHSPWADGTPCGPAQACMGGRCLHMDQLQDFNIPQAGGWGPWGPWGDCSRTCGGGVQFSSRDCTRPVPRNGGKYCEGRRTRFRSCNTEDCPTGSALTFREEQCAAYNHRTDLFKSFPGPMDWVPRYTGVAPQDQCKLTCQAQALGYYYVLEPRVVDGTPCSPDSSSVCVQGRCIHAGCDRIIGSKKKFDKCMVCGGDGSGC

[3] = target: catalytic domain of stromelysin 1 (MMP-3(ΔC)) (Homo sapiens (Human)) (UniProt P08254); assay: enzyme inhibition kinetics, Ki(app), as in Example 1
[4] = target: full-length collagenase 1 (MMP-1) (Homo sapiens (Human)) (UniProt P03956); assay: as above
[5] = target: gelatinase A (MMP-2) (Homo sapiens (Human)) (UniProt P08253); assay: as above
[6] = target: soluble form of TACE in which the transmembrane and C-terminal cytoplasmic domains are deleted (TACE R651) (human) (UniProt P78536); assay: TACE inhibition kinetics at pH 7.5
[7] = target: soluble form of TACE in which the transmembrane and C-terminal cytoplasmic domains are deleted (TACE R651) (human) (UniProt P78536); assay: TACE inhibition kinetics, Ki(app), pH 9.0, fit with equation 3 (cooperative)
[8] = target: full-length collagenase 1 (MMP-1) (Homo sapiens (Human)) (UniProt P03956); assay: MMP-1 inhibition under the conditions used for TACE activity measurements
[9] = target: TACE/ADAM17 on human monocytic cells (THP-1 cells; monocyte-derived macrophages) (human) (UniProt P78536)
[10] = target: soluble form of TACE in which the transmembrane and C-terminal cytoplasmic domains are deleted (TACE R651) (human) (UniProt P78536)

Chain of full-length collagenase 1 (MMP-1) (Homo sapiens (Human)) (P03956 100-469 limits assumed): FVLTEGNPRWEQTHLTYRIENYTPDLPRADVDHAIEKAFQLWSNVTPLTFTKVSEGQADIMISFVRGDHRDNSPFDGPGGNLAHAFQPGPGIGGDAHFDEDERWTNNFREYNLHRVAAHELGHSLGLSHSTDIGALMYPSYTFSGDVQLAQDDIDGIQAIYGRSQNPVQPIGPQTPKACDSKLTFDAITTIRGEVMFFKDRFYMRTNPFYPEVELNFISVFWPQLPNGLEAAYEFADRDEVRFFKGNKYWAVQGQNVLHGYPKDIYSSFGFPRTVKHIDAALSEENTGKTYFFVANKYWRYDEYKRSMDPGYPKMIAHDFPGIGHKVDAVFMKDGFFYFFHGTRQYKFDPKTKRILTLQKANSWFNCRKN
Chain of gelatinase A (MMP-2) (Homo sapiens (Human)) (P08253 110-660 limits assumed): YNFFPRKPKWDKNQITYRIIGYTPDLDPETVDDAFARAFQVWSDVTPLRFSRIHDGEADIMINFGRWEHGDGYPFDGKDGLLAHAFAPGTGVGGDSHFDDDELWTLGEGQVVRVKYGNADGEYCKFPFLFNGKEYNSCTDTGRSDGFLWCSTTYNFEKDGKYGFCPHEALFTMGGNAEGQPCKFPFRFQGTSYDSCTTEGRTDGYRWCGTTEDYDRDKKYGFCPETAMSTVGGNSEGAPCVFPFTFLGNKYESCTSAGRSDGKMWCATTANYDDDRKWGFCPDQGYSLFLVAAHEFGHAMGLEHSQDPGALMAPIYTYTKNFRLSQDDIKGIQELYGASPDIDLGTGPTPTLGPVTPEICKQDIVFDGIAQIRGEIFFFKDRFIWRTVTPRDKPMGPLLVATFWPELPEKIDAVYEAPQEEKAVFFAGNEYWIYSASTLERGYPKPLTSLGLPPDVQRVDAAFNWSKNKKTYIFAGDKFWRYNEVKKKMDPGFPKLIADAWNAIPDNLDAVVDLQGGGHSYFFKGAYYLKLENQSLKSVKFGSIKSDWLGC

B1: wild-type N-TIMP-3 (N-terminal inhibitory domain of tissue inhibitor of metalloproteinase-3), C-terminally His-tagged (protein)
chain: CTCSPSHPQDAFCNSDIVIRAKVVGKKLVKEGPFGTLVYTIKQMKMYRGFTKMPHVQYIHTEASESLCGLKLEVNKYQYLLTGRVYDGKMYTGLCNFVERWDQLTLSQRKGLNYRYHLGCN
- Ki [1]: 0.4 nM
- Ki [2]: 2.4 nM
- Ki [3]: 1.8 nM
- Ki [4]: 8.2 nM
- Ki [5]: 5.1 nM
- Ki [6]: 26 nM
- Ki [7]: 13.7 nM
- Ki [8]: 1.6 nM
- LPS stimulated TNFα release by monocyte-derived macrophages (ELISA) [9]: 180 nM

B2: (-2A)N-TIMP-3 (protein)
chain: AACTCSPSHPQDAFCNSDIVIRAKVVGKKLVKEGPFGTLVYTIKQMKMYRGFTKMPHVQYIHTEASESLCGLKLEVNKYQYLLTGRVYDGKMYTGLCNFVERWDQLTLSQRKGLNYRYHLGCN
- Ki [3]: > 250 nM
- inhibition of TACE activity (% inhibition at 100 nM) [10]: 80 to 90
